Laboratory results from patent US20030129688A1 (published 2003).
Where two headings read alike, the source gives them in different places. Ends that are not written are not given here.

Tests used:
[1] = biological target: ErbB-3 receptor-Ig fusion (human) (UniProt P21860); assay: phage ELISA, competition with soluble ErbB-3-Ig
[2] = biological target: ErbB-4 receptor-Ig fusion (human) (UniProt Q15303); assay: phage ELISA, competition with soluble ErbB-4-Ig
[3] = biological target: ErbB-2/3 receptor-Ig fusion (human, UniProt P04626 23-652; P04626 23-645; P21860 20-643; P04626 23-645); assay: phage ELISA, competition with soluble ErbB-2/3-Ig
Experimental: (§1) Microtiter plates (Nunc Maxisorp™ 96-well plates, Inter Med, Denmark) for phage ELISA were prepared as follows. The wells were precoated overnight with 0.5 μg of rabbit anti-human IgG (Fc gamma fragment-specific) antibodies (Jackson Immunoresearch, West Grove, Pa.) in 100 μL 50 mM NaCO₃ (pH 9.6). The wells were blocked for 30 minutes (min) with 200 μL PBS containing 0.1% bovine serum albumin (BSA) and rinsed with wash buffer (PBS containing 0.05% Tween 20™). The wells were then coated with 0.1 μg ErbB-2/3-Ig in binding buffer (PBS, 0.1% BSA, 0.05% Tween 20™) for 1 h, and washed again.
(§2) Following incubation for 2 h at room temperature, plates were washed extensively and treated with a 1:900 dilution of anti-M13 horseradish peroxidase conjugate (Pharmacia, Piscataway, N.J.) for 20 min. The amount of phage binding was determined by assaying horseradish peroxidase activity using o-phenylenediamine dihydrochloride) substrate solution (Sigma Chemical Company, St. Louis, Mo.).

[4] = biological target: ErbB-3 receptor-Ig fusion (human) (UniProt P21860); assay: 125I-HRG-β1 177-244 displacement, ErbB-3-Ig on plate
[5] = biological target: ErbB-4 receptor-Ig fusion (human) (UniProt Q15303); assay: 125I-HRG-β1 177-244 displacement, ErbB-4-Ig on plate
[6] = biological target: T1, ErbB-3 receptor-Ig fusion (human, UniProt P21860 20-643; P21860 20-636); assay: phage ELISA, competition with soluble ErbB-3-Ig
Experimental: as §1, §2

[7] = biological target: T1, ErbB-3 receptor-Ig fusion; assay: phage ELISA, competition with soluble ErbB-3-Ig; reference
[8] = biological target: T2, ErbB-4 receptor-Ig fusion (human, UniProt Q15303 26-651; Q15303 26-640); assay: phage ELISA, competition with soluble ErbB-4-Ig; reference
[9] = biological target: T2, ErbB-4 receptor-Ig fusion; assay: phage ELISA, competition with soluble ErbB-4-Ig
[10] = biological target: T1, ErbB-3 receptor-Ig fusion; assay: phage ELISA, competition with soluble ErbB-3-Ig; remark: listed apart in the source
[11] = biological target: ErbB-2/3 receptor-Ig fusion (human) (UniProt P04626); assay: 125I-HRG displacement, ErbB-2/3-Ig on plate
[12] = biological target: ErbB-2/3 heterodimers on MCF7 breast cancer carcinoma cells (UniProt P04626); assay: cell-based or functional assay
[13] = biological target: ErbB-2/3 receptor-Ig fusion (human) (UniProt P04626); assay: phage ELISA, competition with soluble ErbB-2/3-Ig

ErbB-4 receptor-Ig fusion (human), sequence (Q15303 other isoform, or with tags, fused parts or gaps): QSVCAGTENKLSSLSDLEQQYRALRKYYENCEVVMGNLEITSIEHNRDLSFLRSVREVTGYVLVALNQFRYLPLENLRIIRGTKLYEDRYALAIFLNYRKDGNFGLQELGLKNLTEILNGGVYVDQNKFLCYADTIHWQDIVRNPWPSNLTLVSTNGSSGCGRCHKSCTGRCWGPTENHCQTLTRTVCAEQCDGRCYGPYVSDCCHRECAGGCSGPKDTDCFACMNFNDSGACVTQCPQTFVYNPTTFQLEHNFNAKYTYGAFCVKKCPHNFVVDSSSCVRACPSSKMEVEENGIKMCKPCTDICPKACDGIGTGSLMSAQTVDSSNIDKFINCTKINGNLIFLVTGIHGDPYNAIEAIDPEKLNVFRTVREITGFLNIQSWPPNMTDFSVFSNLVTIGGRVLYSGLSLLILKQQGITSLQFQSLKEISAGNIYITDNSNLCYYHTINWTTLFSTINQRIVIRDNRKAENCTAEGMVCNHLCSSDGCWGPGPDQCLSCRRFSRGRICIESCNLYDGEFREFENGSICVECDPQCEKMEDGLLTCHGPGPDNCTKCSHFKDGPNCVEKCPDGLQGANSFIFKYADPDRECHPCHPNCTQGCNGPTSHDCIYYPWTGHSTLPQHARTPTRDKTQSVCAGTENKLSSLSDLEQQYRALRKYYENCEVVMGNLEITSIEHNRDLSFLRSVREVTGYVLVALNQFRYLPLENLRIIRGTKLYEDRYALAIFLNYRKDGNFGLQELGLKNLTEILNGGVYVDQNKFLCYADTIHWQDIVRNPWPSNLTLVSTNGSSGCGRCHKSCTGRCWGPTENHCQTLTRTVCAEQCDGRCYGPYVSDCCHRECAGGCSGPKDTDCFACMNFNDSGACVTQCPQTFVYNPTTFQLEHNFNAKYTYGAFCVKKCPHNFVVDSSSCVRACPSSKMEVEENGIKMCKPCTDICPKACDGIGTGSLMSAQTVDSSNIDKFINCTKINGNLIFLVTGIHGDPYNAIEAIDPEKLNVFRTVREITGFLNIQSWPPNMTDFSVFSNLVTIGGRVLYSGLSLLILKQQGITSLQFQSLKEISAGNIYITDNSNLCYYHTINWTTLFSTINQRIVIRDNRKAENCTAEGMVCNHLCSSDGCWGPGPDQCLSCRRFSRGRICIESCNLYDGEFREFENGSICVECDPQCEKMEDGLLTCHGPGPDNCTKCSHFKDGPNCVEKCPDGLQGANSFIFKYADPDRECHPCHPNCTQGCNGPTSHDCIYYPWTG
T2 sequence (Q15303 other isoform, or with tags, fused parts or gaps): as above

B1: HRG2 (HRG-β1 177-244 fused to pIII 247, displayed on phage) (ligand, human, UniProt Q02297-6 177-244, looked up, not shown: large carriers)
chain: SHLVKCAEKEKTFCVNGGECFMVKDLSNPSRYLCKCPNEFTGDRCQNYVMASFYKHLGIEFMEAEELY
notes: monovalent phage display; also called pHRG2-g3
- EC50 [1]: 13 nM
- EC50 [2]: 19 nM
- EC50 [3]: 6 nM

B2: recombinantly produced HRG-β1 177-244 (ligand, human, UniProt Q02297-6 177-244, looked up)
chain: SHLVKCAEKEKTFCVNGGECFMVKDLSNPSRYLCKCPNEFTGDRCQNYVMASFYKHLGIEFMEAEELY
- EC50 [4]: 9 nM
- EC50 [5]: 14.8 nM

B3: HRG-β1 177-244 F216A displayed on phage (ligand, not shown: large carriers; small tags and cut ends)
chain: SHLVKCAEKEKTFCVNGGECFMVKDLSNPSRYLCKCPNEATGDRCQNYVMASFYKHLGIEFMEAEELY
notes: from pHRG2-g3; monovalent phage display
- EC50 [6]: 500 nM

B4: HRG6 (HRG-β1 177-227 fused to pIII 247, displayed on phage) (ligand, human, UniProt Q02297-6 177-227, looked up, not shown: large carriers)
chain: SHLVKCAEKEKTFCVNGGECFMVKDLSNPSRYLCKCPNEFTGDRCQNYVMA
modifications: not fully specified (C-terminus); ends and bridges not checked
notes: monovalent phage display; Ala227 restored from pHRG1-g3; also called pHRG6-g3
- EC50 [3]: 40 nM

B5: HRG11 (HRG-β1 177-230 fused via GGGSGGG to pIII 247, displayed on phage) (ligand, human, not shown: large carriers)
chain: SHLVKCAEKEKTFCVNGGECFMVKDLSNPSRYLCKCPNEFTGDRCQNYVMASFYGGGSGGG
notes: monovalent phage display; also called pHRG11-g3
- EC50 [3]: 19 nM

B6: HRG4 (HRG-β1 147-227 fused to pIII 247, displayed on phage) (ligand, human, UniProt Q02297-6 147-227, looked up, not shown: large carriers)
chain: YVSSESPIRISVSTEGANTSSSTSTSTTGTSHLVKCAEKEKTFCVNGGECFMVKDLSNPSRYLCKCPNEFTGDRCQNYVMA
notes: range 147-227; monovalent phage display; also called pHRG4-g3
- EC50 [3]: 38 nM

B7: HRG8 (HRG-β1 177-228 fused via (GGGS)3 to pIII 323, displayed on phage) (ligand, human, not shown: large carriers)
chain: SHLVKCAEKEKTFCVNGGECFMVKDLSNPSRYLCKCPNEFTGDRCQNYVMASGGGSGGGSGGGS
notes: monovalent phage display; also called pHRG8-g3; wild-type HRG-β1 EGF-phage
- EC50 (wt)/EC50 (mut) [7]: 1 ratio
- EC50 (wt)/EC50 (mut) [8]: 1 ratio
- EC50 [9]: 163 nM
- EC50 [3]: 11 nM
- EC50 [10]: 135 nM

B8: HRG5 (HRG-β1 147-244 fused to pIII 247, displayed on phage) (ligand, human, UniProt Q02297-6 147-244, looked up, not shown: large carriers)
chain: YVSSESPIRISVSTEGANTSSSTSTSTTGTSHLVKCAEKEKTFCVNGGECFMVKDLSNPSRYLCKCPNEFTGDRCQNYVMASFYKHLGIEFMEAEELY
notes: monovalent phage display; also called pHRG5-g3
- EC50 [3]: 4.7 nM

B9: soluble wild-type HRG-β1 EGF (HRG8) (ligand, human, UniProt Q02297-6 177-228, looked up)
chain: SHLVKCAEKEKTFCVNGGECFMVKDLSNPSRYLCKCPNEFTGDRCQNYVMAS
modifications: ends and bridges not checked; cysteine pairing not given here
- EC50 [11]: 0.033 nM
- KIRA EC50 (ErbB-2 tyrosine phosphorylation on MCF7 cells) [12]: 0.212 nM

B10: HRG7 (HRG-β1 177-228 fused to pIII 247, displayed on phage) (ligand, human, UniProt Q02297-6 177-228, looked up, not shown: large carriers)
chain: SHLVKCAEKEKTFCVNGGECFMVKDLSNPSRYLCKCPNEFTGDRCQNYVMAS
modifications: not fully specified (C-terminus); ends and bridges not checked
- EC50 [13]: 42 nM
